Data: US20260274985A1 (MYTHIC THERAPEUTICS, published 2026)
Residue numbers refer to the chain shown, from its start. Like-named read-outs stand apart in the source and are kept apart here.

T1: Human TROP2 Protein, His Tag (Acro Biosystems) (human, UniProt P09758 27-274)
T1 construct: Bought protein; also called TACSTD2; not shown: His tag
T1 sequence: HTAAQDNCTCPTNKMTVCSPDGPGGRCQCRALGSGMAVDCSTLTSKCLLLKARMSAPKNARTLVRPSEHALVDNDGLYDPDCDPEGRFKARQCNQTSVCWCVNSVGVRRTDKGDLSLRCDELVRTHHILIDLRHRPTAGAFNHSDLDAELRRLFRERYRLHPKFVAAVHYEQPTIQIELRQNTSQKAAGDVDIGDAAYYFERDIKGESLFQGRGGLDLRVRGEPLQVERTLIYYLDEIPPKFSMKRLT

T2: Human TROP2 Protein, His Tag (Acro Biosystems) (human, UniProt P09758 27-274)
T2 construct: Bought protein; not shown: His tag
T2 sequence (looked up): T1 sequence

B1: MYT12410 (hu7E6SVG variant, HCV substitutions at 33, 56) (antibody, V domains shown)
VH: QVQLQESGPGLVKPSETLSLTCTVSGGSISSYHVHWIRQPPGKGLEWIGVIWTSGHTDYNSALMGRVTISVDTSKNQFSLKLSSVTAADTAVYYCARDGDYDRYTMDYWGQGTLVTVSS
VL: DIVMTQSPDSLAVSLGERATINCRASKSVSTSGYSYMHWYQQKPGQPPKLLIYLASNLESGVPDRFSGSGSGTDFTLTISSLQAEDVAVYYCQHSRELPYTFGQGTKLEIK
B2: MYT12443 (hu7E6SVG variant, LCV substitutions at 59, 101) (antibody, V domains shown)
VH: B1 VH with H33G, H56V
VL: B1 VL with E59H, T101H
notes: Full IgG in Expi293 supernatant
B3: MYT12419 (hu7E6SVG variant, HCV substitutions at 51, 56) (antibody, V domains shown)
VH: B1 VH with H33G, I51H
VL: B1 VL
B4: MYT12418 (hu7E6SVG variant, HCV substitutions at 34, 106) (antibody, V domains shown)
VH: B1 VH with H33G, V34H, H56V, M106H
VL: B1 VL
B5: MYT12423 (hu7E6SVG variant, HCV substitutions at 56, 102) (antibody, V domains shown)
VH: B1 VH with H33G, D102H
VL: B1 VL
B6: MYT12427 (hu7E6SVG variant, HCV substitutions at 102, 106) (antibody, V domains shown)
VH: B1 VH with H33G, H56V, D102H, M106H
VL: B1 VL
B7: MYT12441 (hu7E6SVG variant, LCV substitutions at 59, 94 (Ala at 94)) (antibody, V domains shown)
VH: B1 VH with H33G, H56V
VL: B1 VL with E59H, H94A
notes: as for B2
B8: MYT12442 (hu7E6SVG variant, LCV substitutions at 59, 97) (antibody, V domains shown)
VH: B1 VH with H33G, H56V
VL: B1 VL with E59H, E97H
notes: as for B2
B9: MYT12435 (hu7E6SVG variant, HCV substitutions at 51, 56, 103) (antibody, V domains shown)
VH: B1 VH with H33G, I51H, R103H
VL: B1 VL
B10: MYT12437 (hu7E6SVG variant, HCV substitutions at 51, 103, 106) (antibody, V domains shown)
VH: B1 VH with H33G, I51H, H56V, R103H, M106H
VL: B1 VL
B11: MYT12415 (hu7E6SVG variant, HCV substitutions at 34, 56) (antibody, V domains shown)
VH: B1 VH with H33G, V34H
VL: B1 VL
B12: MYT12445 (hu7E6SVG variant, LCV substitutions at 60, 94 (Ala at 94)) (antibody, V domains shown)
VH: B1 VH with H33G, H56V
VL: B1 VL with S60H, H94A
notes: as for B2
B13: MYT12414 (hu7E6SVG variant, HCV substitutions at 34, 51) (antibody, V domains shown)
VH: B1 VH with H33G, V34H, I51H, H56V
VL: B1 VL
B14: MYT12444 (hu7E6SVG variant, LCV substitutions at 60, 93) (antibody, V domains shown)
VH: B1 VH with H33G, H56V
VL: B1 VL with S60H, Q93H
notes: as for B2
B15: MYT12436 (hu7E6SVG variant, HCV substitutions at 51, 56, 106) (antibody, V domains shown)
VH: B1 VH with H33G, I51H, M106H
VL: B1 VL
B16: MYT12426 (hu7E6SVG variant, HCV substitutions at 102, 103) (antibody, V domains shown)
VH: B1 VH with H33G, H56V, D102H, R103H
VL: B1 VL
B17: MYT12438 (hu7E6SVG variant, HCV substitutions at 56, 103, 106) (antibody, V domains shown)
VH: B1 VH with H33G, R103H, M106H
VL: B1 VL
B18: MYT12428 (hu7E6SVG variant, HCV substitutions at 103, 106) (antibody, V domains shown)
VH: B1 VH with H33G, H56V, R103H, M106H
VL: B1 VL
B19: MYT12432 (hu7E6SVG variant, HCV substitutions at 33, 56, 103) (antibody, V domains shown)
VH: B1 VH with R103H
VL: B1 VL
B20: MYT12411 (hu7E6SVG variant, HCV substitutions at 33, 102) (antibody, V domains shown)
VH: B1 VH with H56V, D102H
VL: B1 VL
B21: MYT12422 (hu7E6SVG variant, HCV substitutions at 51, 106) (antibody, V domains shown)
VH: B1 VH with H33G, I51H, H56V, M106H
VL: B1 VL
B22: MYT12430 (hu7E6SVG variant, HCV substitutions at 33, 51, 103) (antibody, V domains shown)
VH: B1 VH with I51H, H56V, R103H
VL: B1 VL
B23: MYT11598 (antibody, V domains shown)
VH: QVQLQQSGSELKKPGASVKVSCKASGYTFTNYGMNWVKQAPGQGLKWMGWINTYTGEPTYTDDFKGRFAFSLDTSVSTAYLQISSLKADDTAVYFCARGGHGSSYWYFDVWGQGSLVTVSS
VL: DIQLTQSPSSLSASVGDRVSITCKASQDVSIAVAWYQQKPGKAPKLLIYSASYRYTGVPDRFSGSGSGTDFTLTISSLQPEDFAVYYCQQHYITPLTFGAGTKVEIK
notes: Sacituzumab variant, His at HCV position 101 (H3 05)
B24: MYT11611 (antibody, V domains shown)
VH: B23 VH with H101F
VL: B23 VL with Q27H
notes: Sacituzumab variant, His at LCV position 27 (L1 04)
B25: MYT11615 (antibody, V domains shown)
VH: B23 VH with H101F
VL: B23 VL with I31H
notes: Sacituzumab variant, His at LCV position 31 (L1 08)
B26: MYT11601 (antibody, V domains shown)
VH: B23 VH with H101F, S104H
VL: B23 VL
notes: Sacituzumab variant, His at HCV position 104 (H3 08)
B27: MYT11612 (antibody, V domains shown)
VH: B23 VH with H101F
VL: B23 VL with D28H
notes: Sacituzumab variant, His at LCV position 28 (L1 05)
B28: MYT11607 (antibody, V domains shown)
VH: B23 VH with H101F, V110H
VL: B23 VL
notes: Sacituzumab variant, His at HCV position 110 (H3 14)
B29: MYT11621 (antibody, V domains shown)
VH: B23 VH with H101F
VL: B23 VL with S52H
notes: Sacituzumab variant, His at LCV position 52 (L2 03)
B30: MYT11605 (antibody, V domains shown)
VH: B23 VH with H101F, F108H
VL: B23 VL
B31: MYT11613 (antibody, V domains shown)
VH: B23 VH with H101F
VL: B23 VL with V29H
notes: Sacituzumab variant, His at LCV position 29 (L1 06)
B32: MYT11617 (antibody, V domains shown)
VH: B23 VH with H101F
VL: B23 VL with V33H
notes: Sacituzumab variant, His at LCV position 33 (L1 10)
B33: MYT11610 (antibody, V domains shown)
VH: B23 VH with H101F
VL: B23 VL with S26H
notes: Sacituzumab variant, His at LCV position 26 (L1 03)
B34: MYT11602 (antibody, V domains shown)
VH: B23 VH with H101F, Y105H
VL: B23 VL
B35: MYT11609 (antibody, V domains shown)
VH: B23 VH with H101F
VL: B23 VL with A25H
notes: Sacituzumab variant, His at LCV position 25 (L1 02)
B36: MYT11620 (antibody, V domains shown)
VH: B23 VH with H101F
VL: B23 VL with A51H
notes: Sacituzumab variant, His at LCV position 51 (L2 02)
B37: MYT11608 (antibody, V domains shown)
VH: B23 VH with H101F
VL: B23 VL with K24H
notes: Sacituzumab variant, His at LCV position 24 (L1 01)

Tests used:
[1] = target: T1, Human TROP2 Protein, His Tag (Acro …); test: BLI (Octet)
[2] = target: T2, Human TROP2 Protein, His Tag (Acro …); test: BLI (Octet)
Protocol: After allowing for four days of protein expression, cell culture supernatants were collected, quantified by SDS-PAGE analysis (DNS), and the pH dependence of the variant was evaluated using biolayer interferometry (BLI) on an Octet RED 96e instrument. Briefly, cell culture supernatants were diluted based on qualitative expression level of the variant determined by visual examination of SDS-PAGE gels, 5 μL of cell culture supernatant was diluted into 195 μL of 1×PBST, pH 7.4 for high expressors, 25 μL of cell culture supernatant was diluted into 175 μL of 1×PBST, pH 7.4 for medium expressors and 100 μL of cell culture supernatant was diluted into 100 μL of 1×PBST, pH 7.4 for low expressors for loading onto the sensor tips. The resulting diluted supernatants were then captured on an anti-human Fc sensor (Forte Bio). A baseline was established using 1×PBST (50 mM Potassium Phosphate Buffer+150 mM NaCl+0.05% Tween 20) pH 7.4, and the sensor was associated with 50 nM of TROP2 (Human TROP2 Protein, His Tag, Acro Biosystems) in 1×PBST pH 7.4 for 120 sec to generate an association curve. In the dissociation phase, the antibody-antigen complex on the sensor was exposed to 1×PBST pH 7.4 or pH 5.4, for 300 sec. Association and dissociation phase curves were examined for the starting ABPC antibody (with no substitutions) and each corresponding antibody variant at pH 5.4 and pH 7.4 to inform on two criteria: a) enhanced dissociation (i.e., higher koff values) at pH 5.4 due to histidine or alanine substitution compared to the starting ABPC, (with no substitutions), and b) reduced dissociation at pH 7.4 (i.e., lower koff values) compared to pH 5.4 in the antibody variant itself and with the starting ABPC (with no substitutions). […] It was also noted that while some mutations obliterated TROP2 binding, others were tolerated with little or n change in TROP2 binding kinetics.

Binder | binding result [1] | binding result [2]
B1 | binds | –
B2 | binds | –
B3 | binds | –
B4 | binds | –
B5 | binds | –
B6 | binds | –
B7 | binds | –
B8 | binds | –
B9 | binds | –
B10 | binds | –
B11 | binds | –
B12 | binds | –
B13 | binds | –
B14 | binds | –
B15 | binds | –
B16 | binds | –
B17 | binds | –
B18 | binds | –
B19 | binds | –

Binder | binding result [1] | binding result [2]
B20 | binds | –
B21 | binds | –
B22 | binds | –
B23 | – | binds
B24 | – | binds
B25 | – | binds
B26 | – | binds
B27 | – | binds
B28 | – | binds
B29 | – | binds
B30 | – | binds
B31 | – | binds
B32 | – | binds
B33 | – | binds
B34 | – | binds
B35 | – | binds
B36 | – | binds
B37 | – | binds
